Source: patent US20050075488A1 (published 2005)

T1: human IL-1α (human, UniProt P01583 113-271)
T1 sequence (looked up): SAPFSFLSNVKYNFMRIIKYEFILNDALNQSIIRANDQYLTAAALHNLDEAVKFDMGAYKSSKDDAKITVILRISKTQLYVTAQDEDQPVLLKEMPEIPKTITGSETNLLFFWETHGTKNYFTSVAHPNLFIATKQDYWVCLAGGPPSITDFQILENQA


How the values were obtained:
human IL-1β [1] = biological target: T2, human IL-1β (human, UniProt P01584 117-269); assay: BIAcore, antibody immobilized at low density, ligand flowed (refers to Example 9)
T2 construct: mature; also called mature human IL-1β; Interleukin-1β
Experimental: The binding affinity of the Mu007 antibody was determined using surface plasmon resonance (BIAcore™). In these experiments antibody was immobilized at low density on a BIAcore™ chip and ligand was flowed past. Build up of mass at the surface of the chip was measured. This analytical method allows the determination in real time of both on and off rates for binding. The Mu007 antibody has an affinity of approximately 6.0 picomolar (See Example 9). […] (See example 9). Hu007 comprises heavy and light chains that correspond to SEQ ID NO:17 and SEQ ID NO:13, respectively.
Affinities and specificities of both Hu007 and Mu007 were determined using BIAcore measurements. BIAcore™ is an automated biosensor system that measures molecular interactions. (Karlsson, et al. (1991) J. Immunol. Methods 145: 229-240). In these experiments antibody was immobilized at low density on a BIAcoreTm chip. Ethyl-dimethylaminopropyl-carbodiimide (EDC) was used to couple reactive amino groups to purified goat anti-human IgG or oat anti-rabbit IgG to a flow cell of a carboxy-methyl (CM5) BIAcore™ sensor chip. Goat IgG was diluted in sodium cetate buffer, pH 4.0, and immobilized on a flow cell of a M5 chip using EDC to yield 1000 response units. Unreacted sites were blocked with ehanolamine. A flow rate of 60 μl/min was used. […]

human IL-1β [2] = biological target: T2, human IL-1β; assay: cell-based or functional assay
human IL-1β [3] = biological target: T2, human IL-1β; assay: cell-based or functional assay; remark: listed apart in the source
human IL-1α = biological target: T1, human IL-1α; assay: BIAcore (refers to Example 9)
Experimental: Affinities and specificities of both Hu007 and Mu007 were determined using BIAcore measurements. BIAcore™ is an automated biosensor system that measures molecular interactions. (Karlsson, et al. (1991) J. Immunol. Methods 145: 229-240). In these experiments antibody was immobilized at low density on a BIAcoreTm chip. Ethyl-dimethylaminopropyl-carbodiimide (EDC) was used to couple reactive amino groups to purified goat anti-human IgG or oat anti-rabbit IgG to a flow cell of a carboxy-methyl (CM5) BIAcore™ sensor chip. Goat IgG was diluted in sodium cetate buffer, pH 4.0, and immobilized on a flow cell of a M5 chip using EDC to yield 1000 response units. Unreacted sites were blocked with ehanolamine. A flow rate of 60 μl/min was used. Multiple binding/elution cycles were performed by injection a 100 μl solution of 15 μg/mL Mu007 or Hu007 followed by human IL-1β, mouse IL-1β, rat IL-1β, cynomolgus monkey IL-1β, porcine IL-1β, human IL-1 receptor antagonist, and human IL-1α at decreasing concentrations for each cycle (e.g. 1500, 750, 375, 188, 94, 47, 23.5, 12, and 0 picomolar). Elution was performed with glycine-HCl, pH 1.5. BIAevaluation™ was used to analyze the kinetic data. Table 2 depicts the affinities of Hu007 and Mu007 for human and cynomolgus IL1β. […] Cynomolgus and porcein IL-1β had 100% binding to Hu007 relative to human IL-1β.

human IL-1β [4] = biological target: T2, human IL-1β; assay: ELISA competition on coated human IL-1β, competitor biotinylated Mu007, Exp. B
Experimental: (§1) Wells of 96-well ELISA plates (Nunc-Immuno plate, Cat # 439454, NalgeNunc) were coated with 100 μμl of 0.5 μg/ml of human IL-1β in 0.2M sodium carbonate-bicarbonate buffer (pH 9.4) overnight at 4° C., washed with Wash Buffer, blocked with Superblock blocking buffer for 30 min at 37° C., and washed again with Wash Buffer. A mixture of biotinylated Mu007 (0.16 μg/ml final concentration) and competitor antibody (Mu007 or Hu007; starting at 100 μg/ml final concentration and serial 3-fold dilutions) in ELISA Buffer were added in triplicate in a final volume of 100 μl per well. As a no-competitor control, 100 μl of 0.16 μg/ml biotinylated Mu007 was used. As a background control, 100 μl of ELISA Buffer was used. ELISA plates were incubated at 37° C. for 2 hr. After washing the wells with Washing Buffer, 100 μl of 1 μg/ml HRP-conjugated streptavidin (Jackson ImmunoResearch) was added to each well. ELISA plates were incubated at room temperature for 30 min and washed with Washing Buffer. For color development, 100 μl/well of ABTS substrate was added. Color development was stopped by adding 100 μl/well of 2% oxalic acid. Absorbance was read at 415 nm.
(§2) Both Mu007 and Hu007 competed with biotinylated Mu007 in a concentration-dependent manner. […]

human IL-1β [5] = biological target: T2, human IL-1β; assay: ELISA competition on coated human IL-1β, competitor biotinylated Mu007, Exp. A
Experimental: as §1, §2

human IL-1β [6] = biological target: T2, human IL-1β; assay: ELISA competition on coated human IL-1β, competitor biotinylated Mu007, Exp. C
Experimental: as §1, §2

human IL-1β [7] = biological target: T2, human IL-1β; assay: ELISA competition on coated human IL-1β, competitor biotinylated Mu007
Experimental: as §1, §2

human IL-1β [8] = biological target: T2, human IL-1β; assay: ELISA competition on coated human IL-1β, competitor biotinylated Mu007, average
Experimental: as §1, §2

Row | Kd (human IL-1β [1]) | inhibition of IL-1β stimulated proliferation of T1165.17 cells (3H-thymidine incorporation), average IC50 from three separate experiments (human IL-1β [2]) | IC50 (read off the curve) (human IL-1β [3]) | binding result (human IL-1α) | Difference (IC50 of Hu007 against IC50 of Mu007) (human IL-1β [4]) | Difference (IC50 of Hu007 against IC50 of Mu007) (human IL-1β [5]) | Difference (IC50 of Hu007 against IC50 of Mu007) (human IL-1β [6]) | neutralization of human IL-1β in the murine model of inflammatory stimulation, relative to Mu007 (human IL-1β [2]) | relative binding, fold less than that of Mu007 (human IL-1β [7]) | Difference (IC50 of Hu007 against IC50 of Mu007) (human IL-1β [8]) | Binder
1 | ~0.006 nM | 0.22 nM | ~0.2 nM | no binding | – | – | – | – | – | – | mouse monoclonal antibody Mu007 (antibody, V domains shown) VH: QVQLVQSGAEVKKPGASVKVSCKVSGYTFSRYWIEWVRQAPGKGLEWIGEILPGNGNINYNEKFKGKATITADTSTDTAYMELSSLRSEDTAVYYCSTIYYDYDQGFTYWGQGTLVTVSA VL: DIKMTQSPSSMYASLGERVTITCKASQDIDRYLSWFQQKPGKSPKTLIYRVKRLVDGVPSRFSGSASGQDYSLTISSLQYEDMGIYYCLQYDEFPYTFGGGTKLEIK
2 | 0.01 to 0.02 nM | 0.48 nM | ~0.4 nM | – | 0.88 ratio | 0.98 ratio | 0.82 ratio | ~0.33 fold of Mu007 | 1.3 fold | 0.89 ratio | humanized antibody Hu007 (antibody, human IgG1, kappa, V domains shown, the listing entries may be nucleotide entries with a translation; also called Hu007 IgG1 monoclonal antibody) VH: QVQLVQSGAEVKKPGASVKVSCKVSGYTFSRYWIEWVRQAPGKGLEWIGEILPGNGNINYNEKFKGKATITADTSTDTAYMELSSLRSEDTAVYYCSTIYYDYDQGFTYWGQGTLVTVSS VL: DIQMTQSPSSLSASVGDRVTITCKASQDIDRYLSWFQQKPGKAPKSLIYRVKRLVDGVPSRFSGSASGTDYTLTISSLQPEDFATYYCLQYDEFPYTFGQGTKLEIKR
